Substrate in this data set: O=S(O)O
In words: purified protein. Type of data set: biochemical, Homo sapiens. The note with it: pH 8.0, cytochrome c as electron acceptor, no added chloride.

The results in this text go back to PMC2890295 (Biochemistry, 2010).

B1: wt hSO (human sulfite oxidase) (Homo sapiens) (protein)
chain: ESTHIYTKEEVSSHTSPETGIWVTLGSEVFDVTEFVDLHPGGPSKLMLAAGGPLEPFWALYAVHNQSHVRELLAQYKIGELNPEDKVAPTVETSDPYADDPVRHPALKVNSQRPFNAEPPPELLTENYITPNPIFFTRNHLPVPNLDPDTYRLHVVGAPGGQSLSLSLDDLHNFPRYEITVTLQCAGNRRSEMTQVKEVKGLEWRTGAISTARWAGARLCDVLAQAGHQLCETEAHVCFEGLDSDPTGTAYGASIPLARAMDPEAEVLLAYEMNGQPLPRDHGFPVRVVVPGVVGARHVKWLGRVSVQPEESYSHWQRRDYKGFSPSVDWETVDFDSAPSIQELPVQSAITEPRDGETVESGEVTIKGYAWSGGGRAVIRVDVSLDGGLTWQVAKLDGEEQRPRKAWAWRLWQLKAPVPAGQKELNIVCKAVDDGYNVQPDTVAPIWNLRGVLSNAWHRVHVYVSP
With B1, the catalytic constant (kcat) was found to be 27 ± 2 s⁻¹.
